Source: US20230056815A1 (VIELA BIO, published 2023)

Tests used:
[1] = target: T1, human FLT3L on the cell surface (human, UniProt P49771 27-235); assay: flow cytometry on CHO cells expressing full-length human FLT3L, PE anti-hu IgG; CHO cells transfected with full-length human FLT3L; maximum occupancy relative to FLT3-Fc
T1 construct: whole, on cells; The assay field of each row says which cells carried it; also called cell-surface FLT3L; huFLT3L-expressing CHO cells
T1 sequence (looked up): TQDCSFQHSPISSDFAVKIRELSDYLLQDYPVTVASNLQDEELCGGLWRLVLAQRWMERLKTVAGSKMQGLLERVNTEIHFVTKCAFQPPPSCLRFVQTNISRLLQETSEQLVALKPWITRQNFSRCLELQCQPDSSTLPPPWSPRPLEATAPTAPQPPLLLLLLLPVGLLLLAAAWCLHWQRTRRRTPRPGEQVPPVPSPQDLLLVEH
Method: (§1) Consistent with this, cell surface binding to human, cyno, and mouse FLT3L was evaluated by transfecting Chinese hamster ovary (CHO) cells with the respective full-length protein for each species. Candidate clones were incubated with FLT3L-expressing cell lines for 1 hour at 4° C. before being washed twice to remove unbound antibody. Cells were then incubated with PE-labeled goat anti-hu IgG secondary detection pAb to quantitate bound antibody which was measured by flow cytometric analysis of PE signal. The huFLT3-Fc construct, on a hu IgG backbone, was used as a positive control reagent for FLT3L expression as it cross reacts with cyno and mouse, in addition to human ligand.
(§2) As differences were apparent in the degree of receptor occupancy for each clone, both EC50 and max occupancy were noted (expressed as percent relative to FLT3-Fc) and taken into account in the final evaluation. Results are shown in Table 4 for human, cyno, and mouse FLT3L expressed in CHO cells.

mouse FLT3L on CHO cells = target: T2, mouse FLT3L on CHO cells (mouse, UniProt P49772 27-232); assay: flow cytometry on CHO cells expressing mouse FLT3L, anti-hu IgG-PE detection
T2 construct: whole, on cells; also called cell surface mouse FLT3L
T2 sequence (looked up): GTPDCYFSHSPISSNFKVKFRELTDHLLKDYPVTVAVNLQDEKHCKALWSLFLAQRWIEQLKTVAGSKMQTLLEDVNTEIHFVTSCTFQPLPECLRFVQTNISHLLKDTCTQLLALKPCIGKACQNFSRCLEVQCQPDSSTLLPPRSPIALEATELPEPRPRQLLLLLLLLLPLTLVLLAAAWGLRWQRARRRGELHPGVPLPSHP
Method: as §1

[2] = target: T3, recombinant human colony stimulating factor 1 (CSF1) (human, UniProt P09603 33-190, limits assumed); assay: ELISA on coated recombinant human CSF1
T3 construct: also called huCSF1; huCSF
T3 sequence (looked up): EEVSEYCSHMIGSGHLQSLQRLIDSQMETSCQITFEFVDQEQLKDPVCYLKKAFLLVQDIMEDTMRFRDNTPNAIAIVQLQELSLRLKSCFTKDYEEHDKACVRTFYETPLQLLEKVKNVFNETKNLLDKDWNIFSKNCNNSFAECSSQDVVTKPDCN
Method: (§3) To test this, an ELISA plate was coated with 2 µg of recombinant human SCF or CSF1. After washing, the plate was blocked with 3% milk in Tris-Phosphate Buffered Saline (TPBS) and lead antibodies were added in serial (×2) dilution, starting at 50 µg/ml. After incubation, unbound antibody was removed by washing and bound antibody was detected using anti-human IgG-HRP in combination with TMB substrate for color development. Commercially available goat anti-SCF pAb and mouse anti-CSF1 mAb were used as positive binding controls.

[3] = target: T4, recombinant human stem cell factor (SCF) (human, UniProt P21583 26-189); assay: ELISA on coated recombinant human SCF
T4 construct: also called huSCF; KIT-ligand
T4 sequence (P21583 26-189 limits assumed): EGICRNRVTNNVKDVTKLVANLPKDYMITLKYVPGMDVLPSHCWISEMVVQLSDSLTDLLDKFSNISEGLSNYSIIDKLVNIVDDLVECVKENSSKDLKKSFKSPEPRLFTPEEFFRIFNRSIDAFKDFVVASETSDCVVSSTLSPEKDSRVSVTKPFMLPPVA
Method: as §3

[4] = target: T1, human FLT3L on the cell surface; assay: flow cytometry on CHO cells expressing full-length human FLT3L, PE anti-hu IgG; CHO cells transfected with full-length human FLT3L, PE anti-hu IgG
Method: as §1, §2

mouse soluble FLT3L = target: T5, mouse soluble FLT3L (mouse, UniProt P49772 27-189); assay: inhibition of FLT3 downregulation on RS4;11 cells by soluble mouse FLT3L (N/A in Table 3)
T5 construct: extracellular domain; also called mouse sFLT3L; muFLT3L
T5 sequence (looked up): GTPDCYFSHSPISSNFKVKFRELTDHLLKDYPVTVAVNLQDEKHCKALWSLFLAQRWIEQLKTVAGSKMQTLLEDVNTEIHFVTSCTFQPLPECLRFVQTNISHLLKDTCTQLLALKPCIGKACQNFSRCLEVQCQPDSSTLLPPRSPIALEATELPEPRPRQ
Method: Screening assay conditions were further refined to determine ideal cell culture conditions for evaluating anti-FLT3L candidate clones. Final conditions were: 50,000 RS4;11 cells per well incubated with 96 pM rhuFLT3L with or without anti-FLT3L mAb candidate clones in complete Roswell Park Memorial Institute (RPMI) media with one percent bovine serum albumin (BSA) for 2 hours in an humidified incubator set at 37° C., 5% CO2. Subsequent downregulation of FLT3 expression was determined by flow cytometry as measured either as raw MFI or % downregulation. […] (FIG. 3A). Assay efficacy was confirmed using a commercially available mouse anti-huFLT3L antibody control (MAB608, R&D Systems) (FIG. 3B). Due to the cross-species reactivity of FLT3 with its ligand, this assay was effective for testing clones against human, cyno, and rodent FLT3L, despite being a human cell line. For mouse FLT3L, the EC80 was 36 pM.
Upon ligation of FLT3L to FLT3, the receptor dimerizes, autophosphorylates, and propagates a signaling cascade once internalized. This process, measured by FLT3 downregulation, can be inhibited by antibodies that bind FLT3L. Thus, lead candidates were tested for their ability to inhibit FLT3 downregulation on RS4;11 cells by binding human, mouse, or cynomolgus monkey (cyno) soluble FLT3L (sFLT3L). […] FLT3 expression on RS4;11 cells was determined using flow cytometry and reported as MFI.

[5] = target: T6, human soluble FLT3L (recombinant huFLT3L) (human, UniProt P49771 27-184); assay: cell-based or functional assay
T6 sequence (looked up): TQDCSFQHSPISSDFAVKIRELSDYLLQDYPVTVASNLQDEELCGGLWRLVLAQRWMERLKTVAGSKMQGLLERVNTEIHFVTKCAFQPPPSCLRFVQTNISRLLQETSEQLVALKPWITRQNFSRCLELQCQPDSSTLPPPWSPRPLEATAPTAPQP

[6] = target: cynomolgus monkey soluble FLT3L (cynomolgus monkey); assay: cell-based or functional assay
[7] = target: T6, human soluble FLT3L (recombinant …); assay: cell-based or functional assay; remark: listed apart in the source
[8] = target: T7, cynomolgus monkey FLT3L on CHO cells (cynomolgus monkey); assay: flow cytometry on CHO cells expressing full-length cyno FLT3L, PE anti-hu IgG
T7 construct: whole, on cells; also called cell surface cyno FLT3L
Method: as §1, §2

B1: CAT5D9 antibody (IgG1 TM format) (antibody, V domains shown)
VH: QVQLVQSGAEVKKPGSSVKVSCKISGGTFSSYALSWVRQAPGQGLEWMGGIIPVFRTASYAQKFQGRVTITVDESASTGYIELSSLKSEDTATYYCASNNYVWGSYRFWGQGTTVTVSS
VL: NFMLTQPHSVSESPGKTVTISCTRTSGNIAGYFVQWYQQRPGSSPTTVIYEDYQRPSGVPDRFSGSIDRSSNSASLTISGLKPDDEADYYCQSYDDTSQGVFGAGTKVTVLG
notes: also called clone 5D9; parental 5D9
maximum occupancy (% relative to FLT3-Fc) [1]: 40% | binding result (mouse FLT3L on CHO cells): no binding (tested: x = -7.2 (x axis without title or unit)) | binding result [2]: no binding (tested: about 0.3 uM) | binding result [3]: no binding (tested: about 0.3 uM) | EC50 [4]: 0.157 nM | binding result (mouse soluble FLT3L): no binding | IC50 (nM), inhibition of FLT3 downregulation on RS4;11 cells [5]: 385 nM | IC50 (nM), inhibition of FLT3 downregulation on RS4;11 cells [6]: 564 nM | IC50 (nM) against 0.476 nM FLT3L, ERK phosphorylation in CD133+ stem cells [7]: 187 nM | IC50 (nM) against 0.476 nM FLT3L, MEK phosphorylation in CD133+ stem cells [7]: 181 nM | EC50 [8]: 1.1 nM | maximum occupancy (% relative to FLT3-Fc) [8]: 100%
